Measurements published in paper PMC9507012 (Blood, 2022).
Where “and” joins values, the source holds several entries; their conditions need not be identical. Equal entries are not always repeated.

Target: the molecule itself
Experiment: crystal structure

B1: MEF2D_(2-95) (N-terminal residues 2-95 of human MEF2D) (domain or fragment, UniProt Q14814 2-95, looked up)
chain: GRKKIQIQRITDERNRQVTFTKRKFGLMKKAYELSVLCDCEIALIIFNHSNKLFQYASTDMDKVLLKYTEYNEPHESRTNADIIETLRKKGFNG
stoichiometry N: 2 and 4
